The values below come from paper PMC11674933, “Discovery of Carbonic Anhydrase 9 as a Novel CLEC2 Ligand in a Cellular Interactome Screen” (Cells, 2024).

The target in this assay is CA9^38−414-His-avi (human, UniProt Q16790, biotin (biotinylated)). In words: AlphaScreen or HTRF; validation of the AlphaLISA set-up (Figure S6) with tagged G250 against a control library protein; CA9 on the beads at 15 nM or 60 nM. The conditions noted are these: one partner purified.

B1: 2E3 tagged Girentuximab (G250) (antibody, V domains shown)
VH: DVKLVESGGGLVKLGGSLKLSCAASGFTFSNYYMSWVRQTPEKRLELVAAINSDGGITYYLDTVKGRFTISRDNAKNTLYLQMSSLKSEDTALFYCARHRSGYFSMDYWGQGTSVTVSS
VL: DIVMTQSQRFMSTTVGDRVSITCKASQNVVSAVAWYQQKPGQSPKLLIYSASNRYTGVPDRFTGSGSGTDFTLTISNMQSEDLADFFCQQYSNYPWTFGGGTKLEIK
notes: tagged versions of Girentuximab (G250); also called anti-CA9; G250 constructs
For the molecule B1, the binding result is on record as “binds”.
